Data on 3 molecules can be found in publication PMC9744909, “Functional crosstalk between the cohesin loader and chromatin remodelers” (Nature Communications, 2022).

To fix the notation:
T1: Scc2 subunit of the cohesin loader (S. cerevisiae, UniProt Q04002 1-1493)
T1 construct: Scc2, budding yeast, as it stands in the purified Scc2-Scc4 complex; Present within m1 in the cross-linking experiment; tags as told under m1; source: subunit of Scc2-Scc4 purified from budding yeast (overexpressed)
T1 sequence (looked up): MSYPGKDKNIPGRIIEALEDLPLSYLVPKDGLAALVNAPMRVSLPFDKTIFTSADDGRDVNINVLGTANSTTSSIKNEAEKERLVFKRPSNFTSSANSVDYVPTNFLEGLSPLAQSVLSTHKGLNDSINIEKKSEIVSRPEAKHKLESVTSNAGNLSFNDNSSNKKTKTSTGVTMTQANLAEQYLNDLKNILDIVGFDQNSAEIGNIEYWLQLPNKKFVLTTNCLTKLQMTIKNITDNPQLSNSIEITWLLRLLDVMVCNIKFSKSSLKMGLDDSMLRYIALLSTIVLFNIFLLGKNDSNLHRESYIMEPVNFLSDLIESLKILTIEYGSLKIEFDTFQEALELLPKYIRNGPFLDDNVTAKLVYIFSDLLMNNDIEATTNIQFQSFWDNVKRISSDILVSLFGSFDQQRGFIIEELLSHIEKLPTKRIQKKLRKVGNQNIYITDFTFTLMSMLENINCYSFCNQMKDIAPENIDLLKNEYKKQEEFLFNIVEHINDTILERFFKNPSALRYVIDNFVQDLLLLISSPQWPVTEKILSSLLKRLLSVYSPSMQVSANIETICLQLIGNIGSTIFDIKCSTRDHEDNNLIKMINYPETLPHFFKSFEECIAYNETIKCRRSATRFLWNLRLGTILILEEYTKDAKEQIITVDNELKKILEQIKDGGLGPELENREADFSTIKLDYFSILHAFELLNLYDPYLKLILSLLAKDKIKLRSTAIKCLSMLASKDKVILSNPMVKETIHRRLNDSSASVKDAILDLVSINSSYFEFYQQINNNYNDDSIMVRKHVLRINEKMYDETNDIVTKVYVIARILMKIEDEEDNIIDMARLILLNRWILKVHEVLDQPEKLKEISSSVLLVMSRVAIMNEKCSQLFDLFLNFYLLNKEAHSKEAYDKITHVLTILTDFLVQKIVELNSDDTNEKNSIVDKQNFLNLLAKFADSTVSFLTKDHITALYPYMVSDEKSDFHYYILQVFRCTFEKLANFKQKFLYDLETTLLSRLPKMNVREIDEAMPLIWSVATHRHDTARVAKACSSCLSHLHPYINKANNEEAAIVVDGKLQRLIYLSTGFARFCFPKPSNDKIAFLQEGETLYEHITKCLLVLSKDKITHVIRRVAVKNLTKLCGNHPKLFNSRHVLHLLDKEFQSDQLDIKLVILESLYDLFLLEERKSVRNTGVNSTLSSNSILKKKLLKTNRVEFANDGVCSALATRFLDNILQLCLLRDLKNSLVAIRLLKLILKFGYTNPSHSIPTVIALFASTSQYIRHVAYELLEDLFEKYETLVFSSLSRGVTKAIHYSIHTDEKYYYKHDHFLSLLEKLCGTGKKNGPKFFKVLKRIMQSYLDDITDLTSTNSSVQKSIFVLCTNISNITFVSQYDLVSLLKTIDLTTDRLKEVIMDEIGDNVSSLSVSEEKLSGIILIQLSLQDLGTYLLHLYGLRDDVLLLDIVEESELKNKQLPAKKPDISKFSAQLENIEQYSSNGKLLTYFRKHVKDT

B1: Sth1 365-1097 fragment (ATPase motor module) (domain or fragment, S. cerevisiae, UniProt P32597 365-1097, looked up)
chain: DEQKRIERTAKQRLAALKSNDEEAYLKLLDQTKDTRITQLLRQTNSFLDSLSEAVRAQQNEAKILHGEEVQPITDEEREKTDYYEVAHRIKEKIDKQPSILVGGTLKEYQLRGLEWMVSLYNNHLNGILADEMGLGKTIQSISLITYLYEVKKDIGPFLVIVPLSTITNWTLEFEKWAPSLNTIIYKGTPNQRHSLQHQIRVGNFDVLLTTYEYIIKDKSLLSKHDWAHMIIDEGHRMKNAQSKLSFTISHYYRTRNRLILTGTPLQNNLPELWALLNFVLPKIFNSAKTFEDWFNTPFANTGTQEKLELTEEETLLIIRRLHKVLRPFLLRRLKKEVEKDLPDKVEKVIKCKLSGLQQQLYQQMLKHNALFVGAGTEGATKGGIKGLNNKIMQLRKICNHPFVFDEVEGVVNPSRGNSDLLFRVAGKFELLDRVLPKFKASGHRVLMFFQMTQVMDIMEDFLRMKDLKYMRLDGSTKTEERTEMLNAFNAPDSDYFCFLLSTRAGGLGLNLQTADTVIIFDTDWNPHQDLQAQDRAHRIGQKNEVRILRLITTDSVEEVILERAMQKLDIDGKVIQAGKFDNKSTAEEQEAFLRRLIESETNRDDDDKAELDDDELNDTLARSADEKILFDKIDKERMNQERADAKAQGLRVPPPRLIQLDELPKVFREDIEEHFKKEDSEPLGRIRQKKRVYYDDGLTEEQFLEAVEDDNMSLEDAIKKRREARERRRLRQ
notes: Cloned into pGEX-6P-2; also called Sth1 ATPase module; source: E. coli BL21 Star (DE3) pLysS, purified (glutathione-sepharose, 3C protease cleavage, Superdex 200)
B2: Scc4 subunit of the cohesin loader (natural protein, S. cerevisiae)
chain: MENLGDKLSISQVYHLAQEYRDHAYSIANKIGSEEGLKQYYGLMNMSIQMFQLLKTKCTLSVLEDSKVTFEMVELLIQETYNFDLAELYISSLKERLQTHQSDTDLVEEIMRCEFLLLHDLPLMRDSKFHYKIALRNCNELVQYMVNLQDELYQNWASVFQYVGVMLCIKLKQHRRVKTSFHGLLSQCREKSQWKWFLNLCYVNYLLNERFPIPEDALQELRSTELHTVGPELYAWKLALEMVIQLCKDGNITDHLNEFKNFFDTNKQSLVTNEGKGCVIKIMPRIALKVELPMIFHYKELKNILLLLQSVSYIVNCYDEKGNFSRKFLPKVYSTTQKLIKNIAAGGVSMNELDSRIQTYKSILEFCEFYKVWEQTLLKGAVVTTESPKLGPSPGYVRLLQAMKVQFEGGGAVEEYTRLAQSGGTSSEVKMISLLNCYTVQAARVSRCSGDKQGELVEQCNKVWLQVEKLLQETDLQFNPIWECTVTILWLFSHFEPFSWNPLPCSDKQRAEYVSKLREFYSSNKFVAGEAVADNRFKLKKALLLQILVNYLGGRMLEHDLGEIYAISAKCFDMCRQQGGMRKVQYVIGIWHLMNCTVAMRGKDVALTNAKLEALVKQITSVKQ
notes: Scc4, budding yeast, as it stands in the purified Scc2-Scc4 complex; Present within m1 in the cross-linking experiment; tags as told under m1; source: subunit of Scc2-Scc4 purified from budding yeast (overexpressed)
B3: Sth1, the large ATPase subunit of the RSC remodeler complex (natural protein, S. cerevisiae)
chain: MLQEQSELMSTVMNNTPTTVAALAAVAAASETNGKLGSEEQPEITIPKPRSSAQLEQLLYRYRAIQNHPKENKLEIKAIEDTFRNISRDQDIYETKLDTLRKSIDKGFQYDEDLLNKHLVALQLLEKDTDVPDYFLDLPDTKNDNTTAIEVDYSEKKPIKISADFNAKAKSLGLESKFSNATKTALGDPDTEIRISARISNRINELERLPANLGTYSLDDCLEFITKDDLSSRMDTFKIKALVELKSLKLLTKQKSIRQKLINNVASQAHHNIPYLRDSPFTAAAQRSVQIRSKVIVPQTVRLAEELERQQLLEKRKKERNLHLQKINSIIDFIKERQSEQWSRQERCFQFGRLGASLHNQMEKDEQKRIERTAKQRLAALKSNDEEAYLKLLDQTKDTRITQLLRQTNSFLDSLSEAVRAQQNEAKILHGEEVQPITDEEREKTDYYEVAHRIKEKIDKQPSILVGGTLKEYQLRGLEWMVSLYNNHLNGILADEMGLGKTIQSISLITYLYEVKKDIGPFLVIVPLSTITNWTLEFEKWAPSLNTIIYKGTPNQRHSLQHQIRVGNFDVLLTTYEYIIKDKSLLSKHDWAHMIIDEGHRMKNAQSKLSFTISHYYRTRNRLILTGTPLQNNLPELWALLNFVLPKIFNSAKTFEDWFNTPFANTGTQEKLELTEEETLLIIRRLHKVLRPFLLRRLKKEVEKDLPDKVEKVIKCKLSGLQQQLYQQMLKHNALFVGAGTEGATKGGIKGLNNKIMQLRKICNHPFVFDEVEGVVNPSRGNSDLLFRVAGKFELLDRVLPKFKASGHRVLMFFQMTQVMDIMEDFLRMKDLKYMRLDGSTKTEERTEMLNAFNAPDSDYFCFLLSTRAGGLGLNLQTADTVIIFDTDWNPHQDLQAQDRAHRIGQKNEVRILRLITTDSVEEVILERAMQKLDIDGKVIQAGKFDNKSTAEEQEAFLRRLIESETNRDDDDKAELDDDELNDTLARSADEKILFDKIDKERMNQERADAKAQGLRVPPPRLIQLDELPKVFREDIEEHFKKEDSEPLGRIRQKKRVYYDDGLTEEQFLEAVEDDNMSLEDAIKKRREARERRRLRQNGTKENEIETLENTPEASETSLIENNSFTAAVDEETNADKETTASRSKRRSSRKKRTISIVTAEDKENTQEESTSQENGGAKVEEEVKSSSVEIINGSESKKKKPKLTVKIKLNKTTVLENNDGKRAEEKPESKSPAKKTAAKKTKTKSKSLGIFPTVEKLVEEMREQLDEVDSHPRTSIFEKLPSKRDYPDYFKVIEKPMAIDIILKNCKNGTYKTLEEVRQALQTMFENARFYNEEGSWVYVDADKLNEFTDEWFKEHSS
notes: Sth1, budding yeast, as it stands in the purified RSC complex; Present within m2 in the cross-linking experiment; also called RSC ATPase; source: subunit of RSC purified from budding yeast (TAP-tagged Rsc2)

Holding throughout (details): both partners purified
The target of experiment [1] is T2, Scc2-Scc4 cohesin loader complex (S. cerevisiae, UniProt Q04002 1-1493; P40090 1-624).
T2 construct: Scc2, cohesin loader subunit, budding yeast; Scc4, cohesin loader subunit, budding yeast; Purified by a protein A tag that was removed by 3C protease; also called 2-4
As to the kind of experiment: co-IP; 50 nM Scc2-Scc4 and 50 nM RSC or Sth1 365-1097 mixed in IP buffer (25 mM Tris-HCl pH 7.5, 100 mM NaCl, 2.5 mM MgCl2, 0.2% Triton X-100, 5% glycerol, 0.5 mM TCEP), loader captured on anti-HA protein A magnetic beads, last wash 300 mM NaCl; Sth1 detected by immunoblotting.

Experiment [2] addresses B3. As to the kind of experiment: cross-linking; 0.5 uM cohesin loader and 0.5 uM RSC in CLMS buffer (22.5 mM HEPES-KOH pH 7.5, 75 mM NaCl, 100 mM potassium acetate, 10% glycerol, 0.5 mM TCEP), 1 mM DSSO 15 min 37 C, trypsin digest, tandem mass spectrometry; two biological repeats.
Experiment [3] deals with T1, Scc2 subunit of the cohesin loader. The experiment is described as above.

In the case of B1, in experiment [1], the binding result is on record as “binds”.
As for B2, the binding result in experiment [2] is given as “binds”.
For B3, the binding result in experiment [3] is on record as “binds”.
